The results in this text go back to paper PMC4663749, “Structure of Mycobacterium thermoresistibile GlgE defines novel conformational states that contribute to the catalytic mechanism” (Scientific Reports, 2015).

This series deals with the molecule itself. In words: crystal structure; three structures of GlgE (apo form, maltose co-crystallization, maltose-1P co-crystallization); sitting-drop vapour diffusion at 291 K, ~7 mg/ml protein; one dimer per asymmetric unit.

B1: Mycobacterium thermoresistibile GlgE (enzyme, UniProt G7CL00 1-696, looked up)
chain: MAGRIVIDDVQPVVSNGRYPAKAVVGEVVPVAATVWREGHDAVAATLVVRYHGTTYPDLADPPPGVPGADRTAVPIGDVMTPAAPVKPQRLPMSPGHTPDVFHGHFTPDRVGLWTYRVDGWGDPIASWRHNVTAKLDAGQGESELNNDLLVGARLLERAATGVPRELREALLEAAAALRAPGDPFTRAGAALSAEVSDLLAEYPLREFVTRGEQYGVWVDRPEARFSSWYEMFPRSTGGWDAEGRPVHGTFATAAEALPRIARMGFDVVYLPPIHPIGKVHRKGRNNSVTAAPGDVGSPWAIGSDEGGHDAVHPQLGTIEDFDEFVASARDLGLEVALDLALQCAPDHPWAREHPEWFTVLPDGSIAYAENPPKKYQDIYPLNFDNDPAGIYQEVLRVVRFWISHGVNIFRVDNPHTKPPNFWAWLIGQIKNENPDVLFLSEAFTRPARLYGLAKLGFTQSYTYFTWRTSKWELTEFGQEIAAKADIARPNLFVNTPDILHESLQHGGPGMFAIRAVLAATMGPAWGVYSGYELFENQPVRPGSEEYLNSEKYELRPRDFESALARGESLEPFLTRLNEIRRLHPALRELRTIRFHHVDNDALLAYSKFDPGTGDTVLVVVTLNPFGAEEATLWLDMPELGMEPYDRFWVRDEITGEEYQWGQANYVRLDPAKAVAHVLNMPLIPADKRLQLLRRE
notes: GlgE (alpha-1,4-glucan:maltose-1-phosphate maltosyltransferase) of Mycobacterium thermoresistibile DSM 44167; glgE gene amplified from chromosomal DNA with a forward primer that begins at the GTG start codon and a reverse primer that ends at the stop codon; The construct with the cleavable N-terminal SUMO tag gave all crystals; also called maltosyl transferase; source: E. coli BL21(DE3), purified …
Usually stoichiometry N stands for the number of molecules, sites or subunits per partner or assembly. For the protein B1, the “stoichiometry N” value came to 2.
